According to patent US20250223358A1 (ANTENGENE BIOLOGICS, published 2025):

Columns and labels:
human CD3 [1] = target: T1, human CD3 (human, UniProt P07766 23-207; P04234 22-171; P09693 23-182); assay: FACS on Jurkat cells
T1 construct: whole, on cells; also called hCD3; CD3 on Jurkat cells

human CD3 [2] = target: T1, human CD3; assay: cell-based or functional assay
human CD3 [3] = target: T1, human CD3; assay: cell-based or functional assay; remark: listed apart in the source
cynomolgus CD3 = target: T2, cynomolgus CD3 (cynomolgus (Macaca fascicularis), UniProt Q95LI5 22-198; Q95LI8 22-171; Q95LI7 23-181); assay: FACS on 293T-cynoCD3mix cells
T2 construct: whole, on cells; composition of the 'mix' not defined; also called cynoCD3
T2 sequence (Q95LI5 22-198, chain 1 of 3): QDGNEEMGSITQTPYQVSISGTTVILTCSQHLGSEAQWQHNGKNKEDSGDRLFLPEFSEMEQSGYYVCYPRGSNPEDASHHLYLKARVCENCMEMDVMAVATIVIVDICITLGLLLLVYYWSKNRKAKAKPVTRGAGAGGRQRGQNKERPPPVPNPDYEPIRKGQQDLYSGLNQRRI
T2 sequence (Q95LI8 22-171, chain 2 of 3): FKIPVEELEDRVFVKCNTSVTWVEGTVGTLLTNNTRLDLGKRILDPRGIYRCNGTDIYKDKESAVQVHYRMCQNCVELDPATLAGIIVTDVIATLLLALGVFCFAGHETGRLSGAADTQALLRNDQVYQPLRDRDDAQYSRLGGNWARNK
T2 sequence (Q95LI7 23-181, chain 3 of 3): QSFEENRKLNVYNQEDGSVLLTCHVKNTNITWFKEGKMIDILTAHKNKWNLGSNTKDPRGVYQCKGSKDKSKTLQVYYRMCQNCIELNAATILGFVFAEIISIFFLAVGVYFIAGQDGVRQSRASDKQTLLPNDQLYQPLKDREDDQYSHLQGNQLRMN

T1 sequence (P07766 23-207, chain 1 of 3): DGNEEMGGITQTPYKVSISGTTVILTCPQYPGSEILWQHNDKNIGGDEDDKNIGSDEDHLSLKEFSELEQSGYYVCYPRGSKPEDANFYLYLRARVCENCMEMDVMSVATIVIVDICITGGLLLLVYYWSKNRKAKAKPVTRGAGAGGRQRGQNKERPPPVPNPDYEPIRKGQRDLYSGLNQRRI
T1 sequence (P04234 22-171, chain 2 of 3): as the sequence (Q95LI8 22-171, chain 2 of 3) above, with V5I, K15N, V20I, T32S, N33D, N34I, A64T, N74S, L83V, R141H counted along it
T1 sequence (P09693 23-182, chain 3 of 3): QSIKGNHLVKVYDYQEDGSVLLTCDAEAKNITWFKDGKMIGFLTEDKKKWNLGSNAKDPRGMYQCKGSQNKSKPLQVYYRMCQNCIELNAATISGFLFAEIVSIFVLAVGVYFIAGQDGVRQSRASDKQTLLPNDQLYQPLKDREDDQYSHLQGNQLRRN

EC50 (human CD3 [1]) [nM] | Top FACS signal (human CD3 [1]) | EC50_Fold change (Jurkat-NFAT-luciferase activation, normalized to ch40-C12-C10-E9) (human CD3 [2]) [fold] | Top signal_Fold change (Jurkat-NFAT-luciferase activation, normalized to ch40-C12-C10-E9) (human CD3 [2]) [fold] | EC50_Fold change (Jurkat-NFAT-luciferase activation, normalized to ch147E11E2) (human CD3 [3]) [fold] | Top FACS signal_Fold change (Jurkat-NFAT-luciferase activation, normalized to ch147E11E2) (human CD3 [3]) [fold] | EC50 (cynomolgus CD3) [nM] | Top signal (cynomolgus CD3) | Binder
– | – | – | – | – | – | 2.01 | 19700 | hu147E2-L1H2 (antibody, V domains shown, humanized 147E11E2; also called hu14E2-L1H2) VH: EVQLVQSGAEVKKPGSSVKVSCKASGYTFTSYWMHWVRQAPGQGLEWMGNINPSNGATNYNEKFKSRVTITADKSTSTAYMELSSLRSEDTAVYYCARDRSSQYYFDYWGQGTTVTVSS VL: DIVMTQSPDSLAVSLGERATINCKSSQSLLNSRSRKNYLAWYQQKPGQPPKLLIYWASTRESGVPDRFSGSGSGTDFTLTISSLQAEDVAVYYCTQSYTLRTFGGGTKVEIK
– | – | – | – | – | – | 1.66 | 20700 | hu147E2-L1H3a (antibody, V domains shown, humanized 147E11E2 with N55Q in HCDR2 (deamidation site removed); also called hu14E2-L1H3a) VH: EVQLVQSGAEVKKPGSSVKVSCKASGYTFTSYWMHWVRQAPGQGLEWMGNINPSQGATNYNEKFKSRVTLTVDKSTSTAYMELSSLRSEDTAVYYCARDRSSQYYFDYWGQGTTVTVSS VL: DIVMTQSPDSLAVSLGERATINCKSSQSLLNSRSRKNYLAWYQQKPGQPPKLLIYWASTRESGVPDRFSGSGSGTDFTLTISSLQAEDVAVYYCTQSYTLRTFGGGTKVEIK
– | – | – | – | 1.73 | 0.87 | 1.68 | 21100 | hu147E2-L1H3b (antibody, V domains shown, humanized 147E11E2 with N55S in HCDR2 (deamidation site removed); also called hu14E2-L1H3b) VH: EVQLVQSGAEVKKPGSSVKVSCKASGYTFTSYWMHWVRQAPGQGLEWMGNINPSSGATNYNEKFKSRVTLTVDKSTSTAYMELSSLRSEDTAVYYCARDRSSQYYFDYWGQGTTVTVSS VL: DIVMTQSPDSLAVSLGERATINCKSSQSLLNSRSRKNYLAWYQQKPGQPPKLLIYWASTRESGVPDRFSGSGSGTDFTLTISSLQAEDVAVYYCTQSYTLRTFGGGTKVEIK

Continued, binder first:

Binder | EC50 (human CD3 [1]) [nM] | Top FACS signal (human CD3 [1]) | EC50_Fold change (Jurkat-NFAT-luciferase activation, normalized to ch40-C12-C10-E9) (human CD3 [2]) [fold] | Top signal_Fold change (Jurkat-NFAT-luciferase activation, normalized to ch40-C12-C10-E9) (human CD3 [2]) [fold] | EC50_Fold change (Jurkat-NFAT-luciferase activation, normalized to ch147E11E2) (human CD3 [3]) [fold] | Top FACS signal_Fold change (Jurkat-NFAT-luciferase activation, normalized to ch147E11E2) (human CD3 [3]) [fold] | EC50 (cynomolgus CD3) [nM] | Top signal (cynomolgus CD3)
hu40E9-L5H7 (antibody, V domains shown) VH: EVQLVQSGAEVKKPGSSVKVSCKASGYTFSSYVIHWVRQAPGQGLEWMGYINPGNGVIKYNEKFKGRVTLTSDKSTSTAYMELSSLRSEDTAVYYCARDSYSSYDGFAYWGQGTLVTVSS VL: EIVLTQSPDFQSVTPKEKVTITCSASSSVSYMHWYQQKPDQSPKRLIYDTSKLASGVPSRFSGSGSGTDFTLTINSLEAEDAATYYCQQWRSSPPTFGGGTKVEIK | 0.48 | 1850 | 3.41 | 1.15 | – | – | – | –
hu40E9-L5H8 (antibody, V domains shown) VH: EVQLVQSGAEVKKPGSSVKVSCKASGYTFSSYVIHWVRQAPGQGLEWMGYINPGNDVIKYNEKFKGRVTLTSDKSTSTAYMELSSLRSEDTAVYYCARESYSSYDGFAYWGQGTLVTVSS VL: EIVLTQSPDFQSVTPKEKVTITCSASSSVSYMHWYQQKPDQSPKRLIYDTSKLASGVPSRFSGSGSGTDFTLTINSLEAEDAATYYCQQWRSSPPTFGGGTKVEIK | 25.4 | 531 | – | 0.3 | – | – | – | –
hu40E9-L6H3 (antibody, V domains shown) VH: EVQLVQSGAEVKKPGSSVKVSCKASGYTFSSYVIHWVRQAPGQGLEWMGYINPYNDVIKYNEKFKGRVTLTSDKSTSTAYMELSSLRSEDTAVYYCARDSYYSYDGFAYWGQGTLVTVSS VL: EIVLTQSPDFQSVTPKEKVTITCSASSSVSYMHWYQQKPDQSPKRLIYDTSKLASGVPSRFSGSGSGTDFTLTINSLEAEDAATYYCQQWRSWPPTFGGGTKVEIK | 0.8 | 1990 | 4.34 | 0.95 | – | – | – | –
hu147E2-L1H3 (antibody, V domains shown, humanized 147E11E2; also called hu14E2-L1H3) VH: EVQLVQSGAEVKKPGSSVKVSCKASGYTFTSYWMHWVRQAPGQGLEWMGNINPSNGATNYNEKFKSRVTLTVDKSTSTAYMELSSLRSEDTAVYYCARDRSSQYYFDYWGQGTTVTVSS VL: DIVMTQSPDSLAVSLGERATINCKSSQSLLNSRSRKNYLAWYQQKPGQPPKLLIYWASTRESGVPDRFSGSGSGTDFTLTISSLQAEDVAVYYCTQSYTLRTFGGGTKVEIK | – | – | – | – | 1.98 | 1 | 1.51 | 19200
